In patent US20240132622A1 (Bristol-Myers Squibb, published 2024):
Values belong to the binder of their own block, whether it stands above or below them.

Experiments:
recombinant human PAD4 [1] = molecular target: T1, recombinant human PAD4 (human, UniProt Q9UM07 1-663); assay: cell-based or functional assay
recombinant human PAD4 [2] = molecular target: T1, recombinant human PAD4; assay: cell-based or functional assay; remark: listed apart in the source
[3] = molecular target: T2, recombinant human GST-PAD4 fusion protein (human, UniProt Q9UM07 1-663); assay: BLI (BLITZ), GST-PAD4 on anti-GST biosensor
T2 construct: not shown: GST tag
Description: Affinity testing methods. Affinity of each antibody clone for a GST-PAD4 fusion protein was determined by Biolayer Interferometry (BLI) using a BLITZ instrument (Forte Bio, Menlo Park, California), using a biosensor chip (Anti-GST chip, Forte Bio, Cat. No. 18-5096). The biosensor was treated with citrate buffer, PBS, or PBS/Ca for 15 seconds; recombinant human GST-PAD4 was added on a drop holder for 80 seconds to prime the biosensor with PAD4; antibody was then added on the drop holder for 80 seconds to allow binding between antibody and the PAD4; PBS/PBS-Ca was added on the drop holder for 60 seconds to remove unbound antibody. The association rate constants, kₒₙ, dissociation rate constants, koff, and equilibrium dissociation constants, KD, were determined using BLITZ Pro Software, version 1.2.0.49.

recombinant human PAD4 [4] = molecular target: T1, recombinant human PAD4; assay: SPR 37 C, captured antibody, PAD4 analyte, 2 mM CaCl2
Description: (§1) For SPR measurements, either an anti-human capture surface or Protein A surface (Cytiva catalog #29127555) was used. Anti-human capture surface was prepared by immobilizing anti-human capture antibody (Cytiva catalog #29234600) onto flow cells of a CM5 or CM4 biosensor following the manufacturer's amine coupling protocol (Cytiva catalog #BR-1006-33). SPR experiments were conducted at 37° C. using HBS-P (150 mM NaCl, 10 mM HEPES, pH 7.6, 0.05% Tween-20) (TEKNOVA catalog #H8032) with additional 150 mM NaCl and 1 mM or 2 mM CaCl₂) (see Table 2) or 2 mM EDTA (see Table 3) as running buffer. Antibodies were diluted to 1.5 μg/mL in the running buffer, and were captured across active biosensor flow cells at 10 μL/min for 15 to 30 seconds. […] The association and dissociation of the antibodies with PAD4 were measured. One 30 second injection followed by one 15 second injection of 10 mM glycine pH 1.5 was used to regenerate the Protein A capture surface between assay cycles. For anti-human capture surface, two 30 second injections of 3 M MgCl₂ was used for regeneration. SPR measurements for mAb20 and mAb 13 SPR were done in the presence of 2 mM CaCl₂). The remaining antibodies were tested in the presence of 1 mM CaCl₂).
(§2) Rate constants kₒₙ and koff were derived from reference flow cell- and 0 nM blank-subtracted sensorgrams, and were fit to a 1:1 binding model in Biacore® Insight Evaluation software version 3.0.12.15655. Deviations from 1:1 binding model were observed, which may be caused by increased dimerization of PAD4 at higher concentrations. The equilibrium dissociation constant, KD, was calculated as the ratio of rate constants koff/kₒₙ for each PAD4 antibody. For those antibodies that were tested in multiple SPR experiments, the average value and standard deviation from two or three separate experiments are listed in Tables 2 and 3.

N-His-TVMV-PAD4 = molecular target: T3, N-His-TVMV-PAD4 (human, UniProt Q9UM07 1-663); assay: complex purified by size exclusion chromatography; cryo-EM
T3 construct: E. coli expressed; used for the cryo-EM complex with clone 13 Fab, seen as a 2:2 assembly; also called Human PAD4 (1-663); full-length PAD4 construct with cleavable N-terminal his tag
T3 chain: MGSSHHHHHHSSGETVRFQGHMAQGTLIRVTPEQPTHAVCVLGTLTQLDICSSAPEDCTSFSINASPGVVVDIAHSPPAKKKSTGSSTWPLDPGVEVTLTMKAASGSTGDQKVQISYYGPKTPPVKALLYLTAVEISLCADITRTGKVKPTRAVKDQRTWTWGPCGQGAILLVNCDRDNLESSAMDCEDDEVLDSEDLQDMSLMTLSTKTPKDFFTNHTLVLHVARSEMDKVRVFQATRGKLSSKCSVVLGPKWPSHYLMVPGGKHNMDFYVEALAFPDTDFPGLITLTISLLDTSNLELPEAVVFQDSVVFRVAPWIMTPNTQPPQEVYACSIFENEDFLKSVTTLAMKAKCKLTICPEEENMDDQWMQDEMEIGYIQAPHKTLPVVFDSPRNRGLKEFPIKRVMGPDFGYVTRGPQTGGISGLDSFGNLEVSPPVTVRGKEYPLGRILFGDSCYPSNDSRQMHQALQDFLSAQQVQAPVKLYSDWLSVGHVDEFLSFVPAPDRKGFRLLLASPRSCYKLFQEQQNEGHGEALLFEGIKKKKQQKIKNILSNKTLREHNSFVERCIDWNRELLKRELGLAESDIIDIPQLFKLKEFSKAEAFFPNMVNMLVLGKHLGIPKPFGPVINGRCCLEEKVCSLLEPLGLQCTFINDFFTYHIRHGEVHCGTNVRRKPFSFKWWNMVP

recombinant human PAD4 [5] = molecular target: T1, recombinant human PAD4; assay: SPR 37 C, captured antibody, PAD4 analyte, 2 mM EDTA
Description: as §1, §2

[6] = molecular target: extracellular matrix (ECM) proteins; assay: ECM plate ELISA (Matrigel), 1 uM antibody, A450 over wells without sample
recombinant human PAD4 [7] = molecular target: T1, recombinant human PAD4; assay: SPR 37 C, captured antibody, PAD4 analyte, 1 mM CaCl2
Description: Their binding to human PAD4 was measured by Surface Plasmon Resonance (SPR). SPR measurements were performed with a Biacore® 8K, 8K+, or T200 instrument (Cytiva). The association rate constants, kₒₙ, dissociation rate constants, koff, and equilibrium dissociation constants, KD, of the antibodies with PAD4 were determined from these SPR measurements.
as §1
as §2, with “antibody.” for “antibody. For those antibodies that were tested in multiple SPR experiments, the average value and standard deviation from two or three separate experiments are listed in Tables 2 and 3.”

recombinant human PAD4 [8] = molecular target: T1, recombinant human PAD4; assay: cell-based or functional assay; remark: listed apart in the source

T1 sequence (Q9UM07 whole entry): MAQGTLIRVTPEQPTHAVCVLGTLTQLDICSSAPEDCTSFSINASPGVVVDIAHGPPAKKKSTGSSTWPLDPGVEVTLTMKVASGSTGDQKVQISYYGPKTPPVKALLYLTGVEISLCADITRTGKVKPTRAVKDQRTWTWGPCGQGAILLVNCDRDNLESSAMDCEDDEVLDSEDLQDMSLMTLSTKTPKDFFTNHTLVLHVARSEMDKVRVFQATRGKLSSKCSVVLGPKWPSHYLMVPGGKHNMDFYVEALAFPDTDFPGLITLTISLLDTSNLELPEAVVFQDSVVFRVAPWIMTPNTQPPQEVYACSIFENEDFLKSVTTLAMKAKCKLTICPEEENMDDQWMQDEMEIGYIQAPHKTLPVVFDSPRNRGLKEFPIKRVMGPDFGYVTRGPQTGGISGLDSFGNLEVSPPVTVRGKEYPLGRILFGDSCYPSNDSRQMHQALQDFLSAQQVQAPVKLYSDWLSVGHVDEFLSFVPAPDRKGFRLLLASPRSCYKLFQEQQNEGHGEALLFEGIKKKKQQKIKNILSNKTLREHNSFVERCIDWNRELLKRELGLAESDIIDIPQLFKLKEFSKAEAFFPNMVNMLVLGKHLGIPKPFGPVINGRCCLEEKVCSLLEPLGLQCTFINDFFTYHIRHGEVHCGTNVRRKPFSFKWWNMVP

- IC50 (average), PAD4 citrullination of peptide …, RapidFire MS (recombinant human PAD4 [1]): 30 nM
- IC50 of inhibition of PAD4 activity (% Activity against [AB Clone 13] nM) (recombinant human PAD4 [2]): 10.1 nM
- Kd [3]: < 0.0244 nM
- koff [3]: < 1e-06 s⁻¹
- kon [3]: 41100 M⁻¹ s⁻¹
- Kd (recombinant human PAD4 [4]): 3.2 nM
- koff (recombinant human PAD4 [4]): 0.0011 s⁻¹
- kon (recombinant human PAD4 [4]): 350000 M⁻¹ s⁻¹
B1: clone 13 (mAb13) (antibody, V domains shown)
VH: EVLLQQSGAELVKPGASVRLSCTSSDFNIKDHFIHWVKQRTEQGLEWIGRIDPEDDETKYAPKFQDKVTITADTSSNTAYLQLSSLTSEDTAVFYCAGYGNYEGAMDYWGQGTSVTVSS
VL: DIVLTQSPTSLGVSPGQRATLSCRASENVNNYGIGFMNWFQQKPGQPPKLLIYAASRRGSGVPARFSGSGSGTDFSLNIHPMEEDDTAMYFCQQSKEVPYTFGGGTNLEIR
notes: Murine anti-human PAD4 antibody; also called murine anti-human clone 13 antibody

- binding result (N-His-TVMV-PAD4): binds
B2: clone 13 Fab (Fab, V domains shown)
VH: B1 VH
VL: DIVLTQSPTSLGVSPGQRATLSCRASENVNNYGIGFMNWFQQKPGQPPKLLIYAASRRGSGVPARFSGSGSGTDFSLNIHPMEEDDTAMYFCQQSKEVPYTFGGGTNLEIRR
notes: Heavy chain fragment with C-terminal His-tag; murine constant regions; also called Fab of clone 13; Fab13

- IC50 (average), PAD4 citrullination of peptide …, RapidFire MS (recombinant human PAD4 [1]): 48.2 nM
- Kd (recombinant human PAD4 [5]): 0.1 nM
- koff (recombinant human PAD4 [5]): 0.00021 s⁻¹
- kon (recombinant human PAD4 [5]): 2.1e+06 M⁻¹ s⁻¹
- ECM Score (1 µM) [6]: 1
- Kd (recombinant human PAD4 [7]): 0.1 nM
- koff (recombinant human PAD4 [7]): 0.00012 s⁻¹
- kon (recombinant human PAD4 [7]): 1.6e+06 M⁻¹ s⁻¹
- IC50, citrulline ELISA on peptide …, 13.5 nM rhPAD4 (recombinant human PAD4 [8]): 0.7 nM
- IC50, citrulline ELISA on peptide …, 108 nM rhPAD4 (recombinant human PAD4 [8]): 5.02 nM
B3: hz13-5 (antibody, IgG1, V domains shown)
VH: EVLLVQSGAEVKKPGASVKLSCTSSDFNIKDHFIHWVRQAPGKGLEWMGRIDPEDDETKYAPKFQDRVTMTADTSTDTAYMELSSLRSEDTAVFYCAGYGNYEGAMDYWGQGTLVTVSS
VL: DIQMTQSPSSLSASVGDRVTITCRASENVNNYGIGFMNWFQQKPGKAPKLLIYAASRRGSGVPSRFSGSGSGTDFTLTISSLQPEDFATYFCQQSKEVPYTFGQGTKVEIK
notes: also called clone 13-based hz13-5 antibody; parent hz13-5
